# Assay results reported in article PMC4260256, “A novel serine hydroxymethyltransferase from Arthrobacter nicotianae: characterization and improving catalytic efficiency by rational design” (BMC Biotechnology, 2014).
# System: NC(C(=O)O)C(O)c1ccccc1
# Assay: purified protein
# Settings: pH 7.8; 40.0 °C
substance,measurement,value
AnSHMT (Glutamicibacter nicotianae),Km,57.86 ± 0.07 mM
same,kcat/Km,27.7 M⁻¹ s⁻¹
